We go through two substances from PMC8427755.

The target of assay [1] is FcγRIIb on transfected HEK cells (human) (UniProt P31994). The experiment in a line: flow cytometry on cells; competitive binding on cells transfected with FcγRIIa-H131, FcγRIIa-R131, FcγRIIb or FcγRI; Alexa-labelled rituximab (30 ug/mL) with the tested molecule, PBS pH 7.4; mean of 2 experiments. A general note: A flow cytometer gives signals particle by particle.
The target of assay [2] is FcγRI on transfected Jurkat cells (human) (UniProt P12314). The assay is described as above.
Sequence of UniProt P12314 (P12314 16-374): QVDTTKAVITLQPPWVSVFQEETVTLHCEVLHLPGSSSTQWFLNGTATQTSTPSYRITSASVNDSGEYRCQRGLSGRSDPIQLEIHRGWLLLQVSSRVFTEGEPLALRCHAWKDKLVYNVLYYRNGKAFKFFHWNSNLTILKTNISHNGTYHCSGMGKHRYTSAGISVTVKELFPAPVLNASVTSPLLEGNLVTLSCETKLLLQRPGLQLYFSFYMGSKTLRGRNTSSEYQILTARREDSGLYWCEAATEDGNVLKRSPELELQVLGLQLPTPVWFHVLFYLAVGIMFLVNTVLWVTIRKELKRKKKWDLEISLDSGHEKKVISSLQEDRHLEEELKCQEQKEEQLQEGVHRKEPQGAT
The target of assay [3] is FcγRIIa-R131 on transfected HEK cells (human). The assay is described as above.
The target in assay [4] is FcγRIIa-H131 on transfected cells (human) (UniProt P12318). The description is as above.
Sequence of UniProt P12318 (P12318 34-317): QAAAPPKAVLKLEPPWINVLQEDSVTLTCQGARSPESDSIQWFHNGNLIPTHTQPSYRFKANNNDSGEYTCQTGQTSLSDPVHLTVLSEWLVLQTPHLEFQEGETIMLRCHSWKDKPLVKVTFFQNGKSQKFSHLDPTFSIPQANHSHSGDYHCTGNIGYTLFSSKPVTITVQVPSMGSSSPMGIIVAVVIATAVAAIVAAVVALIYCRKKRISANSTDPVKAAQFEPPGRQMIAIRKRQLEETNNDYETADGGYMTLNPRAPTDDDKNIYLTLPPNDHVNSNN
The target in assay [5] is human FcRn expressed at the surface of Jurkat cells (human) (UniProt P55899). The experiment in a line: flow cytometry on cells; competitive binding on FcRn-transfected Jurkat cells; Alexa-labelled rituximab (30 ug/mL) with the tested molecule, PBS pH 6.0; mean of 2 experiments.
The target of assay [6] is biotinylated human FcRn (Acrobiosystem) (human) (UniProt P55899). The experiment in a line: SPR; Biacore T200, sensor chip CAP; biotinylated human or mouse FcRn captured; samples injected in single cycle kinetic mode, 25°C; 20 mM sodium phosphate, 150 mM NaCl, 0.05% Tween 20, pH 6.0; 1:1 Langmuir model, steady state model for IVIg on hFcRn.
The target of assay [7] is biotinylated mouse FcRn (Acrobiosystem) (mouse | not stated) (UniProt Q61559). Described as above.
Sequence of UniProt Q61559 (Q61559 22-297, chain 1 of 2): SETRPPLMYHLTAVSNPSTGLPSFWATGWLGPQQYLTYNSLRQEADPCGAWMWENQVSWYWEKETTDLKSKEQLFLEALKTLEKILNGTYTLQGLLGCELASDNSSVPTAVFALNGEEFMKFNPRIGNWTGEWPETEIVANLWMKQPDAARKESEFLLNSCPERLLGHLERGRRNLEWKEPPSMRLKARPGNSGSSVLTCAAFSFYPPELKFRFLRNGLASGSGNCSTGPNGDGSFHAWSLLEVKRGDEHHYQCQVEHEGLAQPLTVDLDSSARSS
Sequence of UniProt Q61559 (P01887 21-119, chain 2 of 2, further chain): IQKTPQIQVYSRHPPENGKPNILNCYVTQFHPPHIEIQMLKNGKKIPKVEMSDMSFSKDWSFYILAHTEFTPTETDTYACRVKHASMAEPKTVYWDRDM
For assay [8], the target named is His-tagged hFcγRIIIa (Sinobiological) (human) (UniProt P08637). Nature of the assay: SPR; Biacore T200, CM5 chip with anti-His capture; His-tagged hFcγRIIIa or mFcγRIV captured; 15 mM Tris-HCl, 150 mM NaCl, 0.005% Tween 20, pH 7.4, 25°C; single cycle (hFcγRIIIa) or multi cycle (mFcγRIV) kinetics; 1:1 Langmuir model, two state reaction model for LFBD192 on hFcγRIIIa. On the technique in general: In SPR one partner is held on a chip, and binding of the other changes the refractive index at the surface.
Sequence of UniProt P08637 (P08637 17-254): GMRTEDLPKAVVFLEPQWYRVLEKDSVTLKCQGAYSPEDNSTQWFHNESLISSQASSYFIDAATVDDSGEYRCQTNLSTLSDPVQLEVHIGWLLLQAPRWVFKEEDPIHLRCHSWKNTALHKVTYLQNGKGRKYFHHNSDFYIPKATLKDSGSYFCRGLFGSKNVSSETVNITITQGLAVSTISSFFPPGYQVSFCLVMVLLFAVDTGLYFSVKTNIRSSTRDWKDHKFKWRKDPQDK

The target of assay [9] is His-tagged mFcγRIV (R&D Systems) (mouse). The assay is described as above.
Assay [10] has as its target FcγRIIIa-F158 on transfected Jurkat cells (human) (UniProt P08637). Nature of the assay: flow cytometry on cells; competitive binding on FcγRIIIa-F158-transfected Jurkat cells; FITC-conjugated anti-FcγRIIIa 3G8 (0.5 ug/mL) with 17-2168 nM of the tested molecule, 20 min, 4°C, PBS pH 7.4; mean of 2 experiments.
Assay [11] deals with FcγRI on transfected Jurkat cells (human) (UniProt P12314).
Assay [12] concerns the target Recombinant human FcγRIIIa V/CD16aV (human). Nature of the assay: BLI; Octet RED96; His-tagged hFcγRIIIa V fixed on anti-penta-His (HIS-1K) biosensors; Fc samples 1,000-15.625 nM in kinetic buffer, pH 7.4; 1/1 model; means of 3 experiments. In general terms: In BLI a coated tip is dipped into the sample, and binding shifts an interference pattern.
Assay [13] has as its target recombinant human FcRn receptor (FcRn alpha-chain and beta2-microglobulin heterodimer), biotinylated (human) (UniProt P55899). The experiment in a line: BLI; Octet RED96; biotinylated hFcRn fixed on streptavidin biosensors; Fc samples 200-3.125 nM; 0.1 M phosphate, 150 mM NaCl, 0.05% Tween 20, pH 6.0; 1/1 model; means of 3 experiments.

Sequence of UniProt P31994 (P31994 43-310): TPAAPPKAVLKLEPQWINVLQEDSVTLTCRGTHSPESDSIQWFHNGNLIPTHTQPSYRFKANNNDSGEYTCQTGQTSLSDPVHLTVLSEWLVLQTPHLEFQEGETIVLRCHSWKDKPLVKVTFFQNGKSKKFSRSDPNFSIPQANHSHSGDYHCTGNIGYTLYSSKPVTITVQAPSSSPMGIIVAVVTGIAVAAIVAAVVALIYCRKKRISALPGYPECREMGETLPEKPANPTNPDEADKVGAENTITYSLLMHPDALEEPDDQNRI

With intravenous immunoglobulin (IVIg), the IC50 in assay [1] was 761 nM; in [2] it was 880 nM; in assay [3], 1310 nM; in assay [4], 671 nM; in assay [5], 1360 nM; in assay [10] it was 1680 nM. Also, the Kd in [6] came to 469 nM; in [7], 17.1 nM; in [8], 40 nM; in [9], 554 nM. Also, the IC50 of inhibition of IL-2 secretion by FcγRI-transfected Jurkat cells co-cultured with Raji cells coated with rituximab in assay [11] is greater than 1950 nM. In assay [11], this substance had an inhibitory concentration at 25% of IL-2 secretion by FcγRI-transfected Jurkat cells co-cultured with Raji cells coated with rituximab of 1110 nM.
With “rFc-WT (non-mutated Fc fragment of human IgG1) (domain or fragment)”, the Kd turned out to be 504 nM in [12] and 36.5 nM in assay [13].

By IC50 is commonly meant the point on the concentration scale where inhibition reaches its midpoint. Read a low IC50 as greater potency in that assay. One may read the Kd as the free concentration of one partner at which half of the binding sites on the other are occupied at equilibrium, for simple one-to-one binding.
